From patent publication US20220395553A1 (COHBAR, published 2022)
Square brackets hold non-standard residues; d marks the D form. Ends that are not written are not given here.

How the values were obtained:
[1] = molecular target: T1, CXCR4 on cultured U937 and Jurkat cells (human, UniProt P61073 1-352); assay: cell-based or functional assay
[2] = molecular target: T2, ProLink tagged human CXCR4 (C2C12 CXCR4 β-Arrestin cell line) (human, UniProt P61073 1-352); assay: cell-based or functional assay
T2 sequence (P61073 whole entry): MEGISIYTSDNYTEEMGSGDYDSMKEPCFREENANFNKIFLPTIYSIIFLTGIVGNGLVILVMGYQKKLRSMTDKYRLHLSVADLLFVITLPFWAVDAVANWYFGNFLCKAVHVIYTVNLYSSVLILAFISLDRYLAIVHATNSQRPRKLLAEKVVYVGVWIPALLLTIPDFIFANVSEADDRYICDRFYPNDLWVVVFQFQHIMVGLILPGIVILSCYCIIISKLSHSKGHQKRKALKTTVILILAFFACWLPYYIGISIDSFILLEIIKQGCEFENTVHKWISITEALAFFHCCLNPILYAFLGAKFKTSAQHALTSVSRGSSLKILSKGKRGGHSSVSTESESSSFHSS

[3] = molecular target: T1, CXCR4 on cultured U937 and Jurkat cells; assay: cell-based or functional assay; remark: listed apart in the source
[4] = molecular target: T1, CXCR4 on cultured U937 and Jurkat cells; assay: cell-based or functional assay; remark: listed apart in the source
[5] = molecular target: T2, ProLink tagged human CXCR4 (C2C12 CXCR4 …); assay: cell-based or functional assay; remark: listed apart in the source
[6] = molecular target: T3, SNAP tagged-CXC4 receptor labeled with terbium (Tag-lite CXCR4 cells, HEK293) (UniProt P61073 1-352, SNAP tag labeled with terbium fluorescent dye); assay: HTRF competition on Tag-lite CXCR4 HEK293 cells; competitor labelled CXCL12
T3 construct: whole, on cells; Bought frozen cells (PerkinElmer-CisBio), HEK293 transiently expressing the receptor; also called terbium labeled CXCR receptor
T3 sequence (P61073 whole entry): as above
Procedure: Peptides were initially prepared as 1 mM stock in H₂O. […] Following the manufacture's protocol, a frozen aliquot of Tag-lite CXCR4 cells was thawed and immediately seeded onto 384-well plates in TLB. […] The plates were covered in aluminum foil and left at room temperature for 3 hours. Following the 3 hour incubation period, the plates were removed from the incubator and fluorescence measured using a Cytation 1 plate reader using a HTRF filter cube ([…]; BioTek; Winooski, Vt.).

[7] = molecular target: T4, ProLink tagged human CXCR4 (C2C12 CXCR4 β-Arrestin cell line) (human, UniProt P61073 1-352); assay: cell-based or functional assay; remark: listed apart in the source
T4 sequence (P61073 whole entry): as above

[8] = molecular target: T3, SNAP tagged-CXC4 receptor labeled with …; assay: HTRF competition on Tag-lite CXCR4 HEK293 cells; competitor labelled CXCL12; remark: listed apart in the source
[9] = molecular target: T4, ProLink tagged human CXCR4 (C2C12 CXCR4 …); assay: cell-based or functional assay; remark: listed apart in the source

T1 sequence (P61073 whole entry): as above

With LERYHHS[dA]RSSLRPYT [SEQ ID NO: 5] the “Percent Inhibition of CXCL12 Mediated Migration (1.1 µM Test Article; Jurkat cells)” value [1] was 46%, the “IC50 for Inhibition of CXCR4 Activation (β-Arrestin recruitment)” value [2] was 244 nM and the “Percent Inhibition of CXCR4/CXCL12 Induced p-MEK (100 nM Test Article)” value [3] was -20%. For the same binder, the “Percent Inhibition of CXCR4/CXCL12 Induced p-MEK (1 µM Test Article)” value [3] was 24%, the “Percent Inhibition of CXCL12 Mediated Migration (U937 cells)” value [4] was 86% and the “IC50 for Inhibition of CXCR4 (β-Arrestin recruitment)” value [5] was 121 nM. The IC50 [6] was 33 nM.

With LERYHHSVRSSLRPYTK [SEQ ID NO: 4] the “Percent Inhibition of CXCL12 Mediated Migration (1.1 µM Test Article; Jurkat cells)” value [1] was 77%, the “IC50 for Inhibition of CXCR4 Activation (β-Arrestin recruitment)” value [7] was 4 nM and the “Percent Inhibition of CXCR4/CXCL12 Induced p-MEK (100 nM Test Article)” value [3] was 40%. For the same binder, the “Percent Inhibition of CXCR4/CXCL12 Induced p-MEK (1 µM Test Article)” value [3] was 76%, the “Percent Inhibition of CXCL12 Mediated Migration (U937 cells)” value [4] was 98% and the “Percent Inhibition of CXCR4/CXCL12 Binding (400 nM peptide)” value [8] was 88%. For the same binder, the “IC50 for Inhibition of CXCR4 (β-Arrestin recruitment)” value [9] was 2.28 nM and the IC50 [6] was 6 nM.
